# Source: patent US11203743B2, “Method for producing long-chain glycosylated genistein” (Jiangnan University, priority 2019, dated 2021)
# Key:
# [1] = relative to genistein; cited from earlier work
# [2] = Effect of reaction temperature on the yield of long-chain glycosylated genistein; format: biochemical
# Method: On the basis of Example 2, the mutant A156V/L174P/A166Y with the highest specificity to long-chain glycosylated genistein products was selected, and the reaction temperature was changed into 30° C., 35° C., 40° C., 45° C., 50° C., 55° C. and 60° C. separately.
# (§1) With reference to Example 2, the molar content of short-chain glycosylated genistein (here the short-chain glycosylated genistein was a mixture of monoglycosylated genistein, diglycosylated genistein and triglycosylated genistein) and long-chain glycosylated genistein (here the long-chain glycosylated genistein was a mixture of tetraglycosylated genistein, pentaglycosylated genistein and hexaglycosylated genistein) in a reaction solution was detected by HPLC, the ratio (%) of the molar content of short-chain glycosylated genistein and long-chain glycosylated genistein in the reaction solution to the molar content of total glycosylated genistein in the reaction solution and the content (g/L) of short-chain glycosylated genistein and long-chain glycosylated genistein in the reaction solution were calculated, and detection results were shown in Table 4 and FIG. 1.
# [3] = Effect of reaction pH on the yield of long-chain glycosylated genistein; format: biochemical
# Method: On the basis of Example 2, the mutant A156V/L174P/A166Y with the highest specificity to long-chain glycosylated genistein products was selected, the reaction temperature was controlled to be 50° C., and the reaction pH was changed into 4, 5, 6, 7 and 8 separately.
# as §1, with “5” for “4”, “2.” for “1.”
# [4] = Specificity of different cyclodextrin glucosyltransferases to glycosylated genistein products (maltodextrin donor, genistein receptor, HPLC); format: biochemical
# Method: Genistein (purchased from Sigma) was dissolved in dimethyl sulfoxide (DMSO) to prepare a genistein solution with a final concentration of 7.5 g/L; maltodextrin (purchased from Shanghai Sangon Biotech Co., Ltd.) was dissolved in a PBS buffer (50 mM, pH 6.5) to prepare a maltodextrin solution with a final concentration of 40 g/L; the freeze-fried pure enzymes of the mutants A156V/L174P, A156V/L174P/166Y, A156V/L174P/A166V, A156V/L174P/A166G, A156V/L174P/A166K, A156S, A156L and L174M obtained in Example 1 were dissolved in a PBS buffer (50 mM, pH 6.5) separately to prepare a CGTase enzyme solution with a final concentration of 15 U/L; 300 μL of the genistein solution, 500 μL of the maltodextrin solution and 200 μL of the CGTase enzyme solution were taken separately, mixed in a 2 mL vial with a lid and placed in a shaker for slow shaking at 40° C. and 120 rpm for 20-24 hours to obtain a reaction solution.
# The molar content of short-chain glycosylated genistein (here the short-chain glycosylated genistein was a mixture of monoglycosylated genistein, diglycosylated genistein and triglycosylated genistein) and long-chain glycosylated genistein (here the long-chain glycosylated genistein was a mixture of tetraglycosylated genistein, pentaglycosylated genistein and hexaglycosylated genistein) in the reaction solution was detected by HPLC, the ratio (%) of the molar content of short-chain glycosylated genistein and long-chain glycosylated genistein in the reaction solution to the molar content of total glycosylated genistein in the reaction solution and the content (g/L) of short-chain glycosylated genistein and long-chain glycosylated genistein in the reaction solution were calculated, and detection results were shown in Tables 1 to 2. A method for detecting the ratio (%) of the content of short-chain glycosylated genistein and long-chain glycosylated genistein in the reaction solution to the content of total glycosylated genistein in the reaction solution by HPLC included that the reaction solution was filtered through a 0.22 μm filter membrane, and an Amethyst C18-H column (4.6*250 mm, Sepax, America) was used for detection (see Table 3 for specific detection conditions). The content of long-chain glycosylated genistein=the molar content of hexaglycosylated genistein*the molecular weight of hexaglycosylated genistein+ the molar content of pentaglycosylated genistein*the molecular weight of pentaglycosylated genistein+ the molar content of tetraglycosylated genistein*the molecular weight of tetraglycosylated genistein, and the content of short-chain glycosylated genistein=the molar content of triglycosylated genistein*the molecular weight of triglycosylated genistein+ the molar content of diglycosylated genistein*the molecular weight of diglycosylated genistein+ the molar content of monoglycosylated genistein*the molecular weight of monoglycosylated genistein.
# [5] = 40° C., pH 6.5, 120 rpm, 20-24 hours
molecule,measurement,setting,value
genistein triglucoside,"solubility in water, times higher than that of genistein",[1],"44,000 times"
genistein diglucoside,"solubility in water, times higher than that of genistein",[1],"3,700 times"
"A156V/L174P/A166Y: cyclodextrin glucosyltransferase mutant: A156V, L174P and alanine 166 into tyrosine of SEQ ID NO: 1 (protein, Translated from synthetic DNA) SPDTSVDNKVNFSTDVIYQIVTDRFADGDRTNNPAGDAFSGDRSNLKLYFGGDWQGIIDKINDGYLTGMGVTALWISQPVENITSVIKYSGVNNTSYHGYWARDFKQTNDAFGDFADFQNLIDTAHAHNIKVVIDFAPNHTSPADRDNPGFAENGVLYDNGSLLGYYSNDTAGPFHHNGGTDFSTIEDGIYKNLYDLADINHNNNAMDAYFKSAIDLWLGMGVDGIRFDAVKHMPFGWQKSFVSSIYGGDHPVFTFGEWYLGADQTDGDNIKFANESGMNLLDFEYAQEVREVFRDKTETMKDLYEVLASTESQYDYINNMVTFIDNHDMDRFQVAGSGTRATEQALALTLTSRGVPAIYYGTEQYMTGDGDPNNRAMMTSFNTGTTAYKVIQALAPLRKSNPAIAYGTTTERWVNNDVLIIERKFGSSAALVAINRNSSAAYPISGLLSSLPAGTYSDVLNGLLNGNSITVGSGGAVTNFTLAAGGTAVWQYTAPETSPAIGNVGPTMGQPGNIVTIDGRGFGGTAGTVYFGTTAVTGSGIVSWEDTQIKAVIPKVAAGKTGVSVKTSSGTASNTFKSFNVLTGDQVTVRFLVNQANTNYGTNVYLVGNAAELGSWDPNKAIGPMYNQVIAKYPSWYYDVSVPAGTKLDFKFIKKGGGTVTWEGGGNHTYTTPASGVGTVTVDWQN",content of long-chain glycosylated genistein in the reaction solution,[2]; 30° C.,6.8 g/L
same,content of short-chain glycosylated genistein in the reaction solution,[2]; 30° C.,8.9 g/L
same,content of long-chain glycosylated genistein in the reaction solution,[2]; 35° C.,7.6 g/L
same,content of short-chain glycosylated genistein in the reaction solution,[2]; 35° C.,8.5 g/L
same,content of long-chain glycosylated genistein in the reaction solution,[2]; 40° C.,8.4 g/L
same,content of short-chain glycosylated genistein in the reaction solution,[2]; 40° C.,8.0 g/L
same,increase of the yield of long-chain glycosylated genistein in comparison with 40° C.,[2]; 45-50° C. versus 40° C.,21.4-23.8%
same,content of long-chain glycosylated genistein in the reaction solution,[2]; 45° C.,10.1 g/L
same,content of short-chain glycosylated genistein in the reaction solution,[2]; 45° C.,6.8 g/L
same,content of long-chain glycosylated genistein in the reaction solution,[2]; 50° C.,10.0 g/L
same,content of short-chain glycosylated genistein in the reaction solution,[2]; 50° C.,6.6 g/L
same,content of long-chain glycosylated genistein in the reaction solution,[2]; 55° C.,8.9 g/L
same,content of short-chain glycosylated genistein in the reaction solution,[2]; 55° C.,5.6 g/L
same,content of long-chain glycosylated genistein in the reaction solution,[2]; 60° C.,5.7 g/L
same,content of short-chain glycosylated genistein in the reaction solution,[2]; 60° C.,3.6 g/L
same,ratio of the molar content of long-chain glycosylated genistein to the molar content of total glycosylated genistein in the reaction solution,"[2]; FIG. 1, highest value reached with rising temperature",49%
same,increase of the ratio of long-chain to total glycosylated genistein in comparison with 40° C.,"[2]; FIG. 1, versus 40° C.",21%
same,yield of long-chain glycosylated genistein,[2]; temperature 45-50° C. (highest),10.2 to 10.4 g/L
same,ratio of the molar content of long-chain glycosylated genistein to the molar content of total glycosylated genistein in the reaction solution,"[3]; FIG. 2, pH 4 (highest)",70%
same,increase of the ratio of long-chain to total glycosylated genistein in comparison with pH 6.5,"[3]; FIG. 2, pH 4 versus pH 6.5",30%
same,content of long-chain glycosylated genistein in the reaction solution,"[3]; pH 4, 50° C.",10.2 g/L
same,content of short-chain glycosylated genistein in the reaction solution,"[3]; pH 4, 50° C.",2.6 g/L
same,yield of long-chain glycosylated genistein,"[3]; pH 4 or 8 (highest), 50° C.",10.2 to 10.3 g/L
same,increase of the yield of long-chain glycosylated genistein in comparison with pH 6.5,[3]; pH 4 or 8 versus pH 6.5,20%
same,content of long-chain glycosylated genistein in the reaction solution,"[3]; pH 5, 50° C.",7.2 g/L
same,content of short-chain glycosylated genistein in the reaction solution,"[3]; pH 5, 50° C.",8.8 g/L
same,content of long-chain glycosylated genistein in the reaction solution,"[3]; pH 6, 50° C.",8.5 g/L
same,content of short-chain glycosylated genistein in the reaction solution,"[3]; pH 6, 50° C.",8.0 g/L
same,content of long-chain glycosylated genistein in the reaction solution,"[3]; pH 7, 50° C.",9.7 g/L
same,content of short-chain glycosylated genistein in the reaction solution,"[3]; pH 7, 50° C.",5.5 g/L
same,content of long-chain glycosylated genistein in the reaction solution,"[3]; pH 8, 50° C.",10.3 g/L
same,content of short-chain glycosylated genistein in the reaction solution,"[3]; pH 8, 50° C.",3.6 g/L
same,content of long-chain glycosylated genistein in the reaction solution,[4]; [5],8.5 g/L
same,content of short-chain glycosylated genistein in the reaction solution,[4]; [5],8.0 g/L
same,ratio of the molar content of long-chain glycosylated genistein to the molar content of total glycosylated genistein in the reaction solution,[4]; [5],40%
same,ratio of the molar content of short-chain glycosylated genistein to the molar content of total glycosylated genistein in the reaction solution,[4]; [5],60%
same,specificity to long-chain glycosylated genistein products in comparison with wild type,"[4]; in words, from Tables 1 to 2",significantly improved
same,increase of the yield of long-chain glycosylated genistein compared with wild-type cyclodextrin glucosyltransferase,[4]; versus wild type,165%
